Data published in patent publication US20140127777A1 (CALIFORNIA INSTITUTE OF TECHNOLOGY, published 2014).

What was measured:
[1] = target: the molecule itself; assay: CD thermal unfolding, global two-state fit of the monomer to dimer transition, 1 M standard state
Procedure: Circular Dichroism (CD) Analysis. CD spectra were recorded on an Aviv 62DS spectropolarimeter (Lakewood, N.J.) in PBS buffer, pH 7.4. All peptide concentrations were determined by amino acid analysis of a stock solution (5 mg/ml). Experiments were performed in a rectangular cell with pathlength of 1 cm for low concentration samples and pathlength of 1 mm for high concentration samples. Spectra were scanned from 250 nm to 200 nm with data taken every 1 nm. The temperature of the solution was maintained by a thermostatically controlled cuvette holder (HP model 89101A). Temperature scans were performed from 0° C. to 100° C. in 1° C. steps. Three scans were performed on a single sample and averaged. Each data point was collected after 30 seconds of thermal equilibration at the desired temperature. Urea titration scans were performed manually starting with the 8 M concentrated sample followed by serial dilution to the desired urea concentration. At each concentration, the sample was allowed to equilibrate for 5 min before recording the CD signal.

[2] = target: the molecule itself; assay: CD thermal unfolding, global two-state fit of the monomer to dimer transition; difference against A1-WT at 37 °C

B1: A1-WT (designed binder)
chain: MRGSHHHHHHGSMASGDLENEYAQLEREVRSLEDEAAELEQKVSRLKNEIEDLAEIGDLNNTSGIRRPAAKLN
notes: Expressed in E. coli from pQE-A1 with an N-terminal His-tag; Forms dimeric coiled coils; entered as the single chain; also called wild-type A1
ΔG° (37° C.) [1]: -10.7 kcal/mol

B2: FA1-92 (designed binder)
chain: B1 chain
modifications: leucines (eight per chain) replaced by 5,5,5-trifluoroleucine to 92% by amino acid analysis; mixed population of (2S,4S) and (2S,4R) diastereomers
notes: Expressed in an E. coli leucine auxotroph in medium with trifluoroleucine; The sample is heterogeneous; its main MALDI peak of 8736 corresponds to 8 substitutions; also called 92% fluorinated A1
ΔΔG° [2]: -2.4 kcal/mol | ΔG° (37° C.) [1]: -13.1 kcal/mol
